Patent publication US20110206633A1, “POLYMER CONJUGATES OF CD-NP PEPTIDES” (priority 2008, published 2011)
“Also recorded” adds a separate entry of the source.

Key:
[1] = rat, in vivo, iv
Method: (§1) Thirty one (31) adult male Sprague-Dawley rats with indwelling jugular vein and carotid artery catheters (JVC/CAC) (Charles River Labs, Hollister, Calif.) were utilized for this study. […] All animals were food fasted overnight. Prior to dosing, the rats were weighed, the tails and cage cards were labeled for identification and the doses were calculated. Anesthesia was induced and maintained with 3.0-5.0% isoflurane. The JVC and CAC were externalized and flushed with HEP/saline (10 IU/mL HEP/mL saline). The predose sample was collected from the JVC and the catheters were plugged, and labeled to identify the jugular vein and carotid artery. When all of the animals had recovered from anesthesia and the predose samples were processed, the animals were dosed, intravenously (IV) via the JVC using a 1 mL syringe containing the appropriate test article and the dead volume of the catheter was flushed with 0.9% saline to ensure the animals received the correct dose.
(§2) Following a single IV dose, blood samples were collected from groups 1A, 2A, 3A and 4A, at 0 (pre-dose collected as described above), 0.03, 0.33, 2.0, 6.0, 12.0 and 72.0 hours and from Groups 1B, 2B, 3B and 4B at 0 (pre-dose collected as described above), 0.17, 1.0, 4.0, 8.0, 24.0 and 48.0 hours via the carotid artery catheter and processed as stated in the protocol. Following the last collection point, the animals were euthanized.
(§3) Concentrations in plasma that were below LLOQ were replaced with zeros prior to generating Tables and PK analysis. In the event that more than half (>50%) of the data points were below zero, mean concentration will not be shown in the figures or used in PK parameters estimation. The following PK parameters were estimated using plasma concentration-time profile of each animal:
(§4) C0 Extrapolated concentration to time “zero” Cmax Maximum (peak) concentration AUCall Area under the concentration-time from zero to time of last concentration value T1/2(Z) Terminal elimination half-life AUCinf Area under the concentration-time from zero to time infinity Tmax Time to reach maximum or peak concentration following administration CL Total body clearance Vz Volume of distribution based on terminal phase Vss Volume of distribution at steady state MRTlast Mean residence time to last observable concentration

[2] = Pharmacokinetic study, single IV dose in rats, plasma concentrations, noncompartmental analysis; details: for AUCINF / CL / Cmax / MRTlast / T½ / Vss: non-released PEG-BNP (or native BNP), equivalent protein mass 0.459 mg/kg IV, Sprague Dawley rats
Method: as §1, §2, §3, §4

Row | Compound | peak concentration of conjugate in plasma ([1]; male, Sprague-Dawley) | time of peak concentration of released BNP [1] | time plasma conjugate concentrations remained above 100 ng/mL [1] | time released BNP stayed above 20 ng/mL [1] | half-life of conjugate in plasma ([2]; intact C2-FMOC-PEG2-40K-BNP, IV bolus, rats) | measurable BNP in plasma after BNP administration ([2]; IV, rats, in words) | peak plasma concentration compared with ButyrALD-10K-BNP [1] | clearance compared with ButyrALD-10K-BNP ([2]; IV, rats, in words) | half-life compared with ButyrALD-10K-BNP ([2]; IV, rats, in words) | AUCINF [2] | CL [2] | Cmax [2] | MRTlast [2] | T½ [2] | Vss [2]
1 | C2-FMOC-PEG2-40K-BNP: releasable mono-PEG conjugate of BNP-32 with mPEG2-C2-fmoc-NHS-40K; hydrolysis generates unmodified peptide | 1300 ng/mL | 0.3 h | up to 24 h | 8 h | 15.0 h | – | – | – | – | – | – | – | – | – | –
2 | CC[C@H](C)[C@@H]1NC(=O)[C@H](CCCNC(=N)N)NC(=O)[C@H](CC(=O)O)NC(=O)[C@H](CCSC)NC(=O)[C@H](CCCCN)NC(=O)[C@H](CCCNC(=N)N)NC(=O)CNC(=O)[C@H](Cc2ccccc2)NC(=O)[C@@H](NC(=O)CNC(=O)[C@H](CO)NC(=O)CNC(=O)[C@H](CCC(N)=O)NC(=O)[C@@H](NC(=O)[C@H](CCSC)NC(=O)[C@H](CCCCN)NC(=O)[C@@H]2CCCN2C(=O)[C@@H](N)CO)C(C)C)CSSC[C@@H](C(=O)N[C@@H](CCCCN)C(=O)N[C@H](C(=O)N[C@@H](CC(C)C)C(=O)N[C@@H](CCCN=C(N)N)C(=O)N[C@@H](CCCN=C(N)N)C(=O)N[C@@H](Cc2cnc[nH]2)C(=O)O)C(C)C)NC(=O)CNC(=O)[C@H](CC(C)C)NC(=O)CNC(=O)[C@H](CO)NC(=O)[C@H](CO)NC(=O)[C@H](CO)NC(=O)[C@H](CO)NC1=O [BNP, nesiritide, reference compound] | – | – | – | – | – | No measurable plasma concentrations; also recorded: No BNP was measurable in plasma | – | – | – | – | – | – | – | – | –
3 | ButyrALD-40K-BNP: non-releasable 40 kDa mPEG2-Butyr-ALD mono-PEG conjugate of BNP-32, N-terminus directed | – | – | – | – | – | – | higher peak plasma concentration | lower clearance | longer half-life | 41300 ng·h/mL | 0.185 mL/min/kg | 1410 ng/mL | 24.0 h | 26.1 h | 0.631 L/kg
4 | ButyrALD-10K-BNP: non-releasable mPEG-Butyr-ALD-10K mono-PEG conjugate of BNP-32, N-terminus directed | – | – | – | – | – | – | – | – | – | 96.6 ng·h/mL | 79.17 mL/min/kg | 355 ng/mL | 0.368 h | 0.272 h | 2.27 L/kg
